In the domain aggregation screens of Martell et al. (2025):

Experiment: soluble fraction after stress (log2 fold change); higher = more stays soluble; pooled small domains, quantitative proteomics
Conditions: stress: 50 degC
In short: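 Custom libraries of small protein domains were pooled and measured in a high-throughput format, with quantitative proteomics as the read-out. Each library was stressed at 50°C. The value is the log2 fold change in the amount of each protein that stays soluble after stress, used as a measure of aggregation propensity; higher values mean more of the protein stays soluble.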

Sequence | soluble fraction (log2)
HMTVTLTTLRNGSTGAQVKTLQRLLSAMDYYNGETDGKFGISTAAAVKAFQRAKRLTVDGIVGKNTWTALL | -1.18
HMGFLTKTQRLEILLHLKDEPYYNVEKLKELIKNRYGIVYQSSQSYYDLLKEAGLSWHQTQA | -0.64
HMIAVIKPSATAEQKAGLVDWIRGQGIDVHISEGHDYTVLGLIGDTSKIDMDLIASLDIVDSVKRVA | -0.0298
HMNINVRNTGIKAVENNIINLSSDQRTFTWASNDRKLITVPFDENPYSALAAWFKTDEGIEVYQTIEKKL | -0.115
HMNGKTIEVPDITEKSIAEAQLILNQKKLRYNVVDSTRFDPAYLPFSVLTQEPEAGDEVKKNRTIYITLNP | -0.0871
HMPSSAYGPYKNVFLSNSELTKLKNELPTSWEHYINRLSEYMRSTGRQYQSHAATILRWAATDRNS | -0.139
HMTSLTSDEEQIINVLRAEESVYINALATKSKIPLQKLLGLLIQLEFKGLIHSLPGSHYKIV | -0.138
HMAPLVTLEADGNGAVKLSNLAGHSIREVAGALGGAGLSLIPVGSGTSWKQNPAPGTVLHSGDTVTVYF | 0.126
HMIPTTELAERLGTTKVANMIMLGALIKASGIISFDDMIKNLGELLGEGKAKLIKLNKEALEVGFN | -0.0172
HMTESIKRDEAIRLNNGRIYTLDAAKIGTNEYEVMLFNPRTGEEIDSAKTSTEADAILQFDRLRRMYHR | 0.1
HMTKSSAYLSAEKLINKKQYSDAIVKLNDALVTDSKNADIYNYLGFSHRKLGKMEDAAFFYNKALE | 0.219
HMKTEIKSPLPGIVLKIFVRTGEYVDKNQRLFSLEAMKMENEIKAERAGVIAGIRISEGQSVLQDEVIMEM | -0.297
HMHSGFHSAILDVDRAVKEGKTLYEALNKYPYIFDETFRSLVRAGEASGELPSILSKLALYLEEQSK | -1.16
HMRNSSLQTDLELRAYVIDGLNHFWTPEEIAGRWSLAHPDRPVSFATIYRHIKRKLLPGIEPKTHLRRRGK | -2.55
HMDNVINDGMQVRFTGNVDINGTPLKIYDRIYTAEGISDDTVVLMLGNDVYARVYLSDVVPAD | -0.405
HMDIDLGAVEEQAVKGSGPGGQKMNKTSSGVLLRYRLGEELVLVKWTRERQHSLNRFLALRELVDEIEAR | ≥ 0.62
HMDGFAEFWSAYPKKVGKGAAEASWRKHRPPLQTVLDAVKRQAESDQWRKDGGQFIPNPATWLNQKRWEDD | 0.0948
HMETDGGDLTPRERDVLSLIGRGLRNAEAASALGLSEHTIAGHIKSVYSKLGISTRAEAALLASRLGL | -0.0786
HMNVEKLREMYPEGTKIILQEMQGESRMAKGLKGTVTHVDDAGQIHMKWENGSSLVLNVEVDTFKKIE | 0.0915
HMYPEETVNKILDVSMQLFLEKGYEHTSIQDIVNHLGGLSKGAIYHHFKSKEDILDGVMNKLYQNN | -0.816
HMKALYNLDYEKPLSGSYYTETTARAAVPTDIRKLGLIITYKTDATTNITEQFVGSSISAWTTSGNWKSLG | -0.424
HMDATIGGFKITDSAIYSGVKNNVNAGVRGTYIDKDGQIAFGDSNSYLKYYKDTDGKWKLEVSASSVKF | 0.139
HMGQDLSYYIKIVQNQQPVDPLTGEPKVLDYGEVIRQAQILQMLDTGDLDRDKAIGQLSMKDAL | 0.0152
HMDVPNLVGEEIKDVRRTLRHFQLEVIGEGSKIVSQVPKHGQRLPENTTIRVYLN | 0.155
HMELNKNDLKIIKNISHIYPYFTPVKILQLILSKKFKTIDYNKILKSTSILTTDRSHLYYILNN | 0.0788

Sequence | soluble fraction (log2)
HMGGGVSSSLAGNVFKVLLPAGSVVEQGQAVIVLEAMKMETEVNAPKSGSVSSVFVNEGDTVEVGDLLFAI | -0.17
HMSGYAIVNNQPGRTLNLRNSPSQSNNIIGQIPSGTRLQLISRGETWSEVIFQTTRGFVMSSFLRFET | -0.809
HMDSDIGQQLKILLTVGTFMPSTELKAIAQQFGMKKPTDLKEWVELESDTQRIKGNPTKGYWINEINDL | -0.562
HMGKEWPTPDNVEEWKKLVKKARLWPIQADQAQSEETRERNRKKWELFVAYAKRFGYRAGIGETGKPFVNN | -0.443
HMQWQPSEEAMQRLEQHGIPRAFSFSQLDAFVLQGQEQGSNRNDWNTRFFRFIKNQWVYAQN | -1.62
HMLMRKAEVGVESLNLRHGPGTQYKVLEILPGGKSLHYLAEPRRGWVRVTTEEGTTGWTFLKFLKPE | -1.96
HMELNELTSRELMVAEQVARGASNREISEALSISERTVKAHLSAAFEKLGVRDRVQLALAMNNIPT | -0.0086
HMELKYIDYDEALVVYAKTVTASGGGLSGVKDEGGIRKVLDFVQNDLYYPTFVDKLTYLVFGL | 0.103
HMAIDPLLDKGYEQYDKGEFTEAVKSFNRAIEIDPKNAEAHFLRAMTYQGLALSKLAVADLEKAIV | 0.136
HMSLREKNKARTRTAILNAARDLAKQGQWDAITTRQIADAAGVSYQTLYNYYPSKASILVEMLL | -1.45
HMGAGLKIGNDHEYANYLEYKVSVEKYAPGAILGEIKQKGIQFNTTISKTTFYRYITDGVFLTITNADLPV | 0.223
HMKSVILQLHPETLRWIREEAQADMADASVIQLLNDWELGTKKPTLSQVQKLSHETHIPFGYFFLKEKPA | -0.45
HMNSRQPEEEALFELLAKNPYSDEQLEEIRIAIGSGISYKDVLVIADIKNTAKQMKKLRLKFTKDTG | -0.122
HMKKHALFTLFKHHNANGTTVWYARFWDDATQRYAIARSTGVLAQGKRERHDEAITVAREMASSIQFS | -2.6
HMSINISFEPADHLGKDVIFIRFPYDNEWIQRVRKLKGAKWSQSQRAWHVPDTEHYRTLFQLPQKI | -2.6
HMREVGVPNLRGLTAEEAQIVLSNAGLNLRTEPIRRVHETITVGRIAEQDPMPDLTIRSQRSVTTWLSSGP | 0.317
HMINPASEKQLSFANSLIAKKEGGTETLNHYLHNRKVSSLEELDRKDVSEIINALKFAKEVT | 0.217
HMGETAFRYALPLDQGEALKRSHVIRQSISPDDALATRVTVLEDVLDQTLRQPVQAGEVLLEDHFTR | -0.00712
HMKEAISIYPNPVKDILTIRGMDETSGVSFKLYDVTGNLLLESTHSELDMSGLNRGVYFLDIAGDVRKVVK | 0.0696
HMAMDYYAIGQRIRKFRKAHDWSQEELAEKVEISTTHMSHIETGSTKLSLPVLVSLANVLDVRTDDLLF | -3.88
HMKRTLLLEGRTIPYELTQKPVKNINIRVHADGSVRVSAGPWVSPEAVDAVLRQRSAFLLRALDQFAAQAP | -0.996
HMNLGLTGDPSVLYSILLQRGDSSRADLQRQTGWSLSKTTLVLNQLLAQKLIVQVGAGRSTQYRVIN | -0.983
HMPVLDETVPAALDGERIDRVVALLADVSRNRAGIAIAAGSVRLDGAVVTQRSRKVRADEELVVDGLER | -0.015
HMFSPTKLKEKRESQGLSQSQLASSLGISRASYFNWESGKTKPNQNNLSKLSEILNVDPRYF | 0.355
HMGEVPPGWSVEALAAIERDLAHHVGPVARVLVQRGARLHTTTDDLRSALANAITDDLARRRFMQP | -0.416

Sequence | soluble fraction (log2)
HMARRLELEDIPVDEVLFTASRNLVDAIEVMDPSRQAPMIQPWLKQALEWAVGALGFSKEDAVATLTSD | -0.0273
HMDRWTPLVVAVLSRGSHRFGELRAAIGGITPKVLTDTLRSMERDGLITRDQAPGVPPRVDYALTPLGS | -1.12
HMLKLSGEESQQLALRLREELARRRITRQGLADAAKISISTLEQVLAGRRTFTLATIVRLEEGLGIKLL | -1.89
HMGIRDIHITVNGESLKLSKKQNYIFVDIFDFYPFDLSILGGSKLITTINGEQAEFTSPLKDGDVVELYWK | -0.61
HMTNVIPKAMAPFNGSTIIADGIKNIKDHIDNLYITVGYKGATLSEHVINKGVSAVFNTTGKGNAWWVYN | 0.0606
HMQYKTRVINLSILEVGMVLGRDLINKDGKIIVKKDVAISDFLKDHLIGLSKIKEIEPQIYIKV | -1.08
HMEALGLSPRQVDVLRLLVEGRSNKMIMRELELSESTVKTHLQAIFRRLGVSSRTQAVVAAARLGL | -1.25
HMTHEAEDLNALRMMVRDPIFSSDEPDLQQLRGAVAHAPQFVDRFKELYNDYQRLAEFVQNSL | -0.769
HMGMSMNEFLNNRLEQLAVEAVDKSSLGEEIFFYAEPATINLFKDAVDEDEYKVVFPVLKSIIEVEQKLSR | -1.03
HMNIIMLGEFIKEQRIKRKMTQEYLASELGISRPTYSQIELGTRELTIPEARKMAAIFNISLEDFLAEKE | -0.604
HMTTIAQMTGPQRAAVILLVLGEDHGRTIWQEFDDDEIRIITRAMAELGTVDADEVERLMLDFVGKLSS | -2.58
HMTTQVNTVKIQLANGYEMTVLTSKTNVKEILEDNNIILENNEKVTPNIDEEISSNKTIKITDKSN | 0.146
HMSMSLQFLSRRIRLQREKRGLKQHDIAHALQISPQAVSKWERGENAPDIALLRPLAGLLGVSIDWLMGGD | -2.15
HMSNRDNPVVLDFKKVKSTEQLDNILEEYIRENFEGYTVKGRMFSSDEGKFIIALALKDDDGKRALVYFDV | -0.635
HMNEIYHQIKVDNVSDDDISLFQYSGIEFDHADYRRGEYIEFAISNRDLSILNNLGYEYQVVHH | -0.757
HMKSILDDVVGLGPVRKKALLSAAGGFRKLRDMDVDEVIGLGAVPEEVAREVVTVLAQYNGERDRVEGL | -0.0545
HMETQAGELQDAIRDAIAALPPRTREVFLMSRERNLRYGEIAEALGISVKAVEANMSRALRQLREKLSPFL | -0.454
HMLDEPPVSQTLTTYDREHMALYLRLLDSARDGADWREAVQILFGLDPTRDPLRSRHVHDTHLARARWM | -0.131
HMNYKDQISRYFQQAFHIYPKYQTMKNEEGNFTSKIFKDDKMIIEGVGKSKKKAEQDVSRKALIHFNVL | -0.262
HMSRVSVDGEEVNFEGEIPDDPSRIYELLMGALSEQSRVVVKFFVDGKDALLDEGFPSRYQMIEAESV | -0.285
HMTSNIIIVPNVVGMTKEQATAALAAAGLNIKLSGVETTDTAAVAVKQKPSANTKVEEGSVVTVEFDLK | 0.0533
HMDKEQVTFIFRDIDIALRSLDYPIKDIKNTLNIIKSEFSNSKSTELNEQKINFENILKEAISILENND | -0.627
HMNIWNEWAFKKWIESDEYTGPDMTDFGHRTLVDEEFSKQYKEQMSLFKERVLTDDEFSAKYGDL | -0.66
HMIHSEDMDDHILGHKLVDQYLNKHIEFDNIKKAWNYHTVAIKKFGRYPHRNKILKRESTIEEIDFLKQP | 0.149
HMDNPVPVIITDQNFQPQLWKNVGVPTDTLFHELSAANQRKLENLMKTMIQTPLTDNGKISGYAFYSK | 0.0665
